Measurements as given in patent US20240025997A1.
Where a chain is given by its changes, count along the chain named.

Tests used:
[1] = molecular target: ILT2 and/or ILT4 on human CD14+ monocytes; assay: flow cytometry, fluorescently-labelled antibody on CD14+ monocytes of human PBMC
[2] = molecular target: cynomolgus monkey ILT2 (protein injected in Biacore) (cynomolgus monkey); assay: SPR (Biacore), antibody captured on Protein A chip, ILT protein injected, 25 C
[3] = molecular target: soluble rhesus ILT2-ECD (rhesus macaque); assay: SPR (Biacore), antibody captured on Protein A chip, soluble rhesus ILT2-ECD injected (1.6-200 nM), 25 C
[4] = molecular target: soluble rhesus ILT2-ECD (rhesus macaque); assay: SPR (Biacore), antibody captured on Protein A chip, soluble rhesus ILT2-ECD injected, 25 C, low resolution parameters
[5] = molecular target: human ILT2 chimeric reporter receptor (ILT2 extracellular domain fused to PILRbeta transmembrane/intracellular domain) (human), Q8NHL6
[6] = molecular target: ILT2 and/or ILT4 on human CD14+ monocytes; assay: flow cytometry, fluorescently labelled antibody on CD14+ monocytes of human PBMC, donor Human 2, geometric MFI
[7] = molecular target: cyno ILT2 chimeric reporter receptor (cyno ILT2 extracellular domain fused to PILRbeta transmembrane/intracellular domain) (cynomolgus monkey)
[8] = molecular target: ILT2 and/or ILT4 on human CD14+ monocytes; assay: flow cytometry, fluorescently labelled antibody on CD14+ monocytes of human PBMC, donor Human 1, geometric MFI
[9] = molecular target: T1, human ILT4 chimeric reporter receptor (ILT4 extracellular domain fused to PILRbeta transmembrane/intracellular domain) (human), Q8N423
[10] = molecular target: soluble rhesus ILT2-ECD (rhesus macaque); assay: SPR (Biacore), antibody captured on Protein A chip, soluble rhesus ILT2-ECD injected, 25 C, low resolution parameters; low resolution parameters
[11] = molecular target: T1, human ILT4 chimeric reporter receptor …; remark: listed apart in the source

T1 sequence (Q8N423 other isoform, or with tags, fused parts or gaps mutant limits assumed): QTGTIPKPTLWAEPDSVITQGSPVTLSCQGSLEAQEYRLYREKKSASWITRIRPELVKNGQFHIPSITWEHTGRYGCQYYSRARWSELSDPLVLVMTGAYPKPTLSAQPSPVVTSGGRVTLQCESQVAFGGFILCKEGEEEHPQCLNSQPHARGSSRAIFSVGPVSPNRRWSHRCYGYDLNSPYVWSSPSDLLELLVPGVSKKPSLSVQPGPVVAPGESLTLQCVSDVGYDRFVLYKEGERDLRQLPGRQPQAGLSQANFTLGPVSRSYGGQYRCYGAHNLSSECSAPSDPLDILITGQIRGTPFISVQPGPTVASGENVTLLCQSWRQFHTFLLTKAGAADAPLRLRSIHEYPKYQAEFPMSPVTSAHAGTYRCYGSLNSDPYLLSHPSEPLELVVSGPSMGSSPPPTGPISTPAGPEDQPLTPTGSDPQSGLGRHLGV
Sequence of soluble rhesus ILT2-ECD (rhesus macaque) (chain, as listed by the source limits assumed, form in doubt): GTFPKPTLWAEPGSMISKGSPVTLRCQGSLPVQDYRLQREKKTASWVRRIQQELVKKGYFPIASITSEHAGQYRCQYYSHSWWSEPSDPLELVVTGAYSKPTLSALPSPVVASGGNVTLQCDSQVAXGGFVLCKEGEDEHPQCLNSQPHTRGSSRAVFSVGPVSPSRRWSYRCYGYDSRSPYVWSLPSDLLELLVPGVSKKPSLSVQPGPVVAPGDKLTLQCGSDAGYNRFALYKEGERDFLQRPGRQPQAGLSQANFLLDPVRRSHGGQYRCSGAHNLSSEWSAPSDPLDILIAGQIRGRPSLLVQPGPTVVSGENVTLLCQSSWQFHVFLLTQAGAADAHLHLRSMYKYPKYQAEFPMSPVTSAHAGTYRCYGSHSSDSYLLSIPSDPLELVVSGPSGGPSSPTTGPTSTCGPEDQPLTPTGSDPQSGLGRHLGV
Sequence of cynomolgus monkey ILT2 (protein injected in Biacore) (cynomolgus monkey) (chain, as listed by the source limits assumed, form in doubt): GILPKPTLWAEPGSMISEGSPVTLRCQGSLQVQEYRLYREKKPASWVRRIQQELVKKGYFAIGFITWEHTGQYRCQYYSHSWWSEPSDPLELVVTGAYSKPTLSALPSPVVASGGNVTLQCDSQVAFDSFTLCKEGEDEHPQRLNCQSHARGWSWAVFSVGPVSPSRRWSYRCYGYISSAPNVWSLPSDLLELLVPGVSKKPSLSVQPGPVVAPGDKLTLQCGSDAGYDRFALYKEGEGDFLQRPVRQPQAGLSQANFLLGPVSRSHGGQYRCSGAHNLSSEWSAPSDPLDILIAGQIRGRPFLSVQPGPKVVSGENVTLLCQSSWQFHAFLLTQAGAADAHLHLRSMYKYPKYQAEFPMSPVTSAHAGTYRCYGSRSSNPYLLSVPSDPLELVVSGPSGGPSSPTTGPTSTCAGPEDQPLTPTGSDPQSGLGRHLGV
Sequence of human ILT2 chimeric reporter receptor (ILT2 extracellular domain fused to PILRbeta transmembrane/intracellular domain) (human), Q8NHL6 (Q8NHL6 24-461 limits assumed, change not shown): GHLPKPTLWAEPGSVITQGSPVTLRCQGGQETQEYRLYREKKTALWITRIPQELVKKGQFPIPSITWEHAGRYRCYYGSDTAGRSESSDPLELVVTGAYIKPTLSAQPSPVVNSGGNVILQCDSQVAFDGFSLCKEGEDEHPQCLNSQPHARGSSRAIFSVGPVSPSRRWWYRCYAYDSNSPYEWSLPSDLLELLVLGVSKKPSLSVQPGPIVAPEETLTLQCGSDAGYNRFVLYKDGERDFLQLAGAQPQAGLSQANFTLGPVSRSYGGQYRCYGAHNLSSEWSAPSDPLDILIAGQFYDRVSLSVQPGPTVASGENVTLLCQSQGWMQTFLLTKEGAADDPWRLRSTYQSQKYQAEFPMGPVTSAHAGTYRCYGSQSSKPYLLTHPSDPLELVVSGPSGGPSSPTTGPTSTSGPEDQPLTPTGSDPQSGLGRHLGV

B1: humanized anti-ILT2/ILT4 antibody Hz73D1.v1 (antibody, human IgG1, kappa, N297G, V domains shown)
VH: QVQLVQSGAEVKKPGASVKVSCKASGYTFTDYYINWVRQAPGQGLEWMGNVNPNDGGTTYNQKFKGRVTMTTDTSTSTAYMELRSLRSDDTAVYYCARREIYFYGTIYYYAMDYWGQGTLVTVSS
VL: DIQLTQSPSFLSASVGDRVTITCRASESVDYYGNSFMYWYQQKPGKAPKLLIYFASNLESGVPSRFSGSGSGTEFTLTISSLQPEDFATYYCQQNNEDPWTFGGGTKVEIKR
With B1 the EC50 [1] was 8.8 nM, the Kd [2] was 19.1 nM and the koff [2] was 0.06 s⁻¹. It also gave a kon [2] of 3.4e+06 M⁻¹ s⁻¹.

B2: anti-ILT4 antibody 47C8 (antibody, V domains shown)
VH: EVQLQQSGPDLVKPGASVKISCKASGYSFTGYYMHWVKQSHGKSLEWIGRVYPNNGDTSYNQKFKVKAILTVDKSSSTAYMELRSLTSEDSAVYYCARGATVVESLFAYWGQGTLVTVSA
VL: DIVLTQSPASLAVSLGQRATISCRASESVDNYGNNFLHWYQQKPGQPPKLLIYRTSNLESGIPARFSGSGSRTDFTLTINPVEADDVATYYCQQSNEDPYTFGGGTKLEIK
Binder B2 has a Kd [3] of 2.3 nM, a koff [3] of 0.0014 s⁻¹ and a kon [3] of 590000 M⁻¹ s⁻¹.

B3: anti-ILT2/ILT4 antibody 47H6 (antibody, V domains shown)
VH: EVQLQQSGPELVKPGASVKISCKASGYTFTDYYMNWVKQSHGKSLEWIGDFNPNNGGTTYNQKFEGKATLTVDKSSNTAYMDLRSLTSEDSAVYYCARGRFYYGSLYSFDYWGQGTTLTVSS
VL: DIQMTQSPASLSASVGETVTITCRASGNIHNYLAWYQQKQGKSPHLLVYNAKTLADGVPSRFSGSGSGTQYSLKINNLQPEDFGSYYCQHFWTSITFGAGTKLDLK
B3 gave a Kd [4] of under 0.1 nM, a koff [4] of 1e-05 s⁻¹ and a kon [4] of 47000 M⁻¹ s⁻¹.

B4: anti-ILT2 antibody 27F9 (antibody, V domains shown)
VH: QVQLKESGPGLVAPSQSLSITCTVSGFSLTNYGVSWVRQPPGKGLEWLGIIWGDGSTNYHSALISRLSISKDNSKSQVFLKLNSLQADDTATYYCAKPNWDTYAMDFWGQGTSVTVSS
VL: DIQMTQTTSSLSASLGDRVTISCRASQDISNFLNWYQQKPDGTVKLLIYCTSKLHSGVPSRFSGSGSETDYSLTISNLEQEDIATYFCQQGNTLPPTFGGGTKLEII
Binder B4 has an IC50 (read off the curve), %GFP+ human ILT2 reporter cells co-cultured with Raji cells [5] of 0.04 nM.

B5: anti-ILT2/ILT4 antibody 73D1 (antibody, V domains shown)
VH: AVQLQQSGPELVKPGASVKISCKASGYTFTDYYINWVKQSHGKSLQWIGNVNPNDGGTTYNQKFKGKATLTVDKSSSTAYMELRSLTSEDSAVYYCARREIYFYGTIYYYAMDYWGQGTSVTVSS
VL: DIVLTQSPASLAVSLGQRATISCRASESVDYYGNSFMYWYQQKPGRPPNLLIYFASNLESGVPARFSGSGSRTDFTLTIDPVEADDAATYYCQQNNEDPWTFGGGTKLEIK
In the case of B5, the EC50 (read off the curve) [6] is reported as 5 nM, the IC50 (read off the curve), %GFP+ cyno ILT2 reporter cells co-cultured with Raji cells [7] is reported as 0.04 nM and the EC50 (read off the curve) [8] is reported as 4 nM. It also gave an IC50 (read off the curve), %GFP+ human ILT4 reporter cells co-cultured with Raji cells [9] of 0.07 nM, an IC50 (read off the curve), %GFP+ human ILT2 reporter cells co-cultured with Raji cells [5] of 0.2 nM and a Kd [3] of 1.2 nM. The koff [3] was 6e-05 s⁻¹ and the kon [3] was 50000 M⁻¹ s⁻¹.

B6: anti-ILT2/ILT4 antibody 51A1 (antibody, V domains shown)
VH: EVQLVESGGGLVQPKGSLKLSCAASGFTFNTYAMHWVRQAPGKGLEWVARIRSKSSNYATYYADSVKDRFTISRDDSQSMLYLQMNNLKTEDTAMYYCVRDGIYYYGTMYYYAMDYWGQGTSVTVSS
VL: B5 VL with D1N, R46Q, N49K, D85A, T89S
Binder B6 has a Kd [3] of 0.2 nM, a koff [3] of 2.1e-05 s⁻¹ and a kon [3] of 100000 M⁻¹ s⁻¹.

B7: anti-ILT2/ILT4 antibody 73C4 (antibody, V domains shown)
VH: B5 VH with I34M, Q46E, D55N, T59S
VL: B5 VL
B7 was tested, and the Kd [4] was under 0.1 nM, the koff [4] was 1e-05 s⁻¹ and the kon [4] was 31000 M⁻¹ s⁻¹.

B8: anti-ILT2/ILT4 antibody 64A12 (antibody, V domains shown)
VH: B6 VH with G107D
VL: B5 VL with D1N, M37I, R46Q, N49K, D85A, T89S
B8 was tested, and the kon [10] was 20000 M⁻¹ s⁻¹, the Kd [4] was under 0.1 nM and the koff [4] was 1e-05 s⁻¹.

B9: anti-ILT4 antibody 48A5 (antibody, V domains shown)
VH: QIQLVQSGPELKKPGETVKISCKASGYTFTNYGMNWVKQAPGKGLKWMGWINTYIGEPIYADDFKGRFAFSLETSASTAYLQINNLKNEDMATYFCARRSDYDGYAMDYWGQGTSVTVSS
VL: DIVMSQSPSSLAVSVGERVTMSCKSSQSLLYSGNQKNYLAWYQQKPGQSPKLLIYWASTRESGVPDRFTGSGSGTDFTLTISSVKAEDLAVYYCQQHDSYPTFGGGSRLEIK
B9 showed an IC50 (read off the curve), %GFP+ human ILT4 reporter cells co-cultured with 721.221-HLA-G cells [11] of 0.02 nM, an IC50 (read off the curve), %GFP+ human ILT4 reporter cells co-cultured with Raji cells [9] of 0.02 nM and a Kd [3] of 2.3 nM. The koff [3] was 0.0026 s⁻¹ and the kon [3] was 1.1e+06 M⁻¹ s⁻¹.
